# According to US20140087995A1 (published 2014):
# Numbered stars: 1 amine (or outer) side, 2 acyl side, 3 side chain; on linkers, the order of the positions; unused ones are H or OH. Bridge positions count the residues as written; N and C are the ends. Side chains are listed from the residue outwards. Ends that are not written are not given here. * marks the point of attachment. C20 diacid = O=C(O)CCCCCCCCCCCCCCCCCCC(=O)*; γGlu = O=C(O)[C@H](CCC(=O)[*:2])N[*:1]
# T1: human calcitonin receptor (human, UniProt P30988 25-474)
# T1 construct: whole, on cells; Assay used cell membranes, not intact cells; also called hCTR; hCT
# T1 sequence (looked up): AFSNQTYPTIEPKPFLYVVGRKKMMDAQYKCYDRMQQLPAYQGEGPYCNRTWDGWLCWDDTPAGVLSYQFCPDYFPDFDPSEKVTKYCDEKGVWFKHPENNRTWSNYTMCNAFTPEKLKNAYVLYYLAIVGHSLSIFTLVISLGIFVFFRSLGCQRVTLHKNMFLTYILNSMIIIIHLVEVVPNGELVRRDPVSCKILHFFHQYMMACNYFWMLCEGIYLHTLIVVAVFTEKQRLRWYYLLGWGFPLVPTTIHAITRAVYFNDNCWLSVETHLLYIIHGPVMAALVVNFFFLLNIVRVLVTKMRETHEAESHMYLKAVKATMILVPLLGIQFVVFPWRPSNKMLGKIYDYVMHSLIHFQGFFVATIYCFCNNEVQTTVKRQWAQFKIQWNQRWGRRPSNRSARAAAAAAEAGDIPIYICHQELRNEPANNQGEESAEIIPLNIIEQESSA
# T2: human amylin receptor (amylin 3(a) receptor: human calcitonin receptor with RAMP-3) (human, UniProt P30988 25-474; O60896 24-148)
# T2 construct: whole, on cells; Assay used cell membranes of the Amylin 3(a)/CRE-luc BHK cells, not intact cells; also called hAmylin-R; hAmylinR
# T2 sequence (looked up) 1: T1 sequence (looked up)
# T2 sequence (looked up) 2: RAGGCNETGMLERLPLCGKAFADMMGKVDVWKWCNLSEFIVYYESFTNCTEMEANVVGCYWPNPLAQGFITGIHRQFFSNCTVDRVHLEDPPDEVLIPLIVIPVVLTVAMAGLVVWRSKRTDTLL
# B1: N^ε1-[(4S)-4-carboxy-4-(19-carboxynonadecanoylamino)butanoyl]-[Arg17,Pro21,Pro27,Arg34]-h-amylin (peptide)
# peptide: K([γGlu-C20 diacid])CNTATCATQRLANFLRHSSPNFGAIPSSTNVGRNTY-NH2
# modifications: disulfide 2-7; N-terminus assumed
# SMILES: CC[C@H](C)[C@H](NC(=O)[C@H](C)NC(=O)CNC(=O)[C@H](Cc1ccccc1)NC(=O)[C@H](CC(N)=O)NC(=O)[C@@H]1CCCN1C(=O)[C@H](CO)NC(=O)[C@H](CO)NC(=O)[C@H](Cc1c[nH]cn1)NC(=O)[C@H](CCCNC(=N)N)NC(=O)[C@H](CC(C)C)NC(=O)[C@H](Cc1ccccc1)NC(=O)[C@H](CC(N)=O)NC(=O)[C@H](C)NC(=O)[C@H](CC(C)C)NC(=O)[C@H](CCCNC(=N)N)NC(=O)[C@H](CCC(N)=O)NC(=O)[C@@H](NC(=O)[C@H](C)NC(=O)[C@@H]1CSSC[C@H](NC(=O)[C@@H](N)CCCCNC(=O)CC[C@H](NC(=O)CCCCCCCCCCCCCCCCCCC(=O)O)C(=O)O)C(=O)N[C@@H](CC(N)=O)C(=O)N[C@@H]([C@@H](C)O)C(=O)N[C@@H](C)C(=O)N[C@@H]([C@@H](C)O)C(=O)N1)[C@@H](C)O)C(=O)N1CCC[C@H]1C(=O)N[C@@H](CO)C(=O)N[C@@H](CO)C(=O)N[C@H](C(=O)N[C@@H](CC(N)=O)C(=O)N[C@H](C(=O)NCC(=O)N[C@@H](CCCNC(=N)N)C(=O)N[C@@H](CC(N)=O)C(=O)N[C@H](C(=O)N[C@@H](Cc1ccc(O)cc1)C(N)=O)[C@@H](C)O)C(C)C)[C@@H](C)O
# notes: also called compound 79
# B2: N^ε1-[(4S)-4-carboxy-4-(19-carboxynonadecanoylamino)butanoyl]-[Asp14,Arg17,Pro21,Pro27,Pro34,Arg35]-h-amylin (peptide)
# peptide: K([γGlu-C20 diacid])CNTATCATQRLADFLRHSSPNFGAIPSSTNVGPRTY-NH2
# modifications: disulfide 2-7; N-terminus assumed
# SMILES: CC[C@H](C)[C@H](NC(=O)[C@H](C)NC(=O)CNC(=O)[C@H](Cc1ccccc1)NC(=O)[C@H](CC(N)=O)NC(=O)[C@@H]1CCCN1C(=O)[C@H](CO)NC(=O)[C@H](CO)NC(=O)[C@H](Cc1c[nH]cn1)NC(=O)[C@H](CCCNC(=N)N)NC(=O)[C@H](CC(C)C)NC(=O)[C@H](Cc1ccccc1)NC(=O)[C@H](CC(=O)O)NC(=O)[C@H](C)NC(=O)[C@H](CC(C)C)NC(=O)[C@H](CCCNC(=N)N)NC(=O)[C@H](CCC(N)=O)NC(=O)[C@@H](NC(=O)[C@H](C)NC(=O)[C@@H]1CSSC[C@H](NC(=O)[C@@H](N)CCCCNC(=O)CC[C@H](NC(=O)CCCCCCCCCCCCCCCCCCC(=O)O)C(=O)O)C(=O)N[C@@H](CC(N)=O)C(=O)N[C@@H]([C@@H](C)O)C(=O)N[C@@H](C)C(=O)N[C@@H]([C@@H](C)O)C(=O)N1)[C@@H](C)O)C(=O)N1CCC[C@H]1C(=O)N[C@@H](CO)C(=O)N[C@@H](CO)C(=O)N[C@H](C(=O)N[C@@H](CC(N)=O)C(=O)N[C@H](C(=O)NCC(=O)N1CCC[C@H]1C(=O)N[C@@H](CCCNC(=N)N)C(=O)N[C@H](C(=O)N[C@@H](Cc1ccc(O)cc1)C(N)=O)[C@@H](C)O)C(C)C)[C@@H](C)O
# B3: N^ε1-[(4S)-4-carboxy-4-(19-carboxynonadecanoylamino)butanoyl]-[Arg17,Pro21,Pro27,His34]-h-amylin (peptide)
# peptide: K([γGlu-C20 diacid])CNTATCATQRLANFLRHSSPNFGAIPSSTNVGHNTY-NH2
# modifications: disulfide 2-7; N-terminus assumed
# SMILES: CC[C@H](C)[C@H](NC(=O)[C@H](C)NC(=O)CNC(=O)[C@H](Cc1ccccc1)NC(=O)[C@H](CC(N)=O)NC(=O)[C@@H]1CCCN1C(=O)[C@H](CO)NC(=O)[C@H](CO)NC(=O)[C@H](Cc1c[nH]cn1)NC(=O)[C@H](CCCNC(=N)N)NC(=O)[C@H](CC(C)C)NC(=O)[C@H](Cc1ccccc1)NC(=O)[C@H](CC(N)=O)NC(=O)[C@H](C)NC(=O)[C@H](CC(C)C)NC(=O)[C@H](CCCNC(=N)N)NC(=O)[C@H](CCC(N)=O)NC(=O)[C@@H](NC(=O)[C@H](C)NC(=O)[C@@H]1CSSC[C@H](NC(=O)[C@@H](N)CCCCNC(=O)CC[C@H](NC(=O)CCCCCCCCCCCCCCCCCCC(=O)O)C(=O)O)C(=O)N[C@@H](CC(N)=O)C(=O)N[C@@H]([C@@H](C)O)C(=O)N[C@@H](C)C(=O)N[C@@H]([C@@H](C)O)C(=O)N1)[C@@H](C)O)C(=O)N1CCC[C@H]1C(=O)N[C@@H](CO)C(=O)N[C@@H](CO)C(=O)N[C@H](C(=O)N[C@@H](CC(N)=O)C(=O)N[C@H](C(=O)NCC(=O)N[C@@H](Cc1c[nH]cn1)C(=O)N[C@@H](CC(N)=O)C(=O)N[C@H](C(=O)N[C@@H](Cc1ccc(O)cc1)C(N)=O)[C@@H](C)O)C(C)C)[C@@H](C)O
# notes: also called compound 77
# B4: N^ε1-[(4S)-4-carboxy-4-(19-carboxynonadecanoylamino)butanoyl]-[Glu14,Arg17,Pro21,Pro27,Arg34,Glu35]-h-amylin (peptide)
# peptide: K([γGlu-C20 diacid])CNTATCATQRLAEFLRHSSPNFGAIPSSTNVGRETY-NH2
# modifications: disulfide 2-7; N-terminus assumed
# SMILES: CC[C@H](C)[C@H](NC(=O)[C@H](C)NC(=O)CNC(=O)[C@H](Cc1ccccc1)NC(=O)[C@H](CC(N)=O)NC(=O)[C@@H]1CCCN1C(=O)[C@H](CO)NC(=O)[C@H](CO)NC(=O)[C@H](Cc1c[nH]cn1)NC(=O)[C@H](CCCNC(=N)N)NC(=O)[C@H](CC(C)C)NC(=O)[C@H](Cc1ccccc1)NC(=O)[C@H](CCC(=O)O)NC(=O)[C@H](C)NC(=O)[C@H](CC(C)C)NC(=O)[C@H](CCCNC(=N)N)NC(=O)[C@H](CCC(N)=O)NC(=O)[C@@H](NC(=O)[C@H](C)NC(=O)[C@@H]1CSSC[C@H](NC(=O)[C@@H](N)CCCCNC(=O)CC[C@H](NC(=O)CCCCCCCCCCCCCCCCCCC(=O)O)C(=O)O)C(=O)N[C@@H](CC(N)=O)C(=O)N[C@@H]([C@@H](C)O)C(=O)N[C@@H](C)C(=O)N[C@@H]([C@@H](C)O)C(=O)N1)[C@@H](C)O)C(=O)N1CCC[C@H]1C(=O)N[C@@H](CO)C(=O)N[C@@H](CO)C(=O)N[C@H](C(=O)N[C@@H](CC(N)=O)C(=O)N[C@H](C(=O)NCC(=O)N[C@@H](CCCNC(=N)N)C(=O)N[C@@H](CCC(=O)O)C(=O)N[C@H](C(=O)N[C@@H](Cc1ccc(O)cc1)C(N)=O)[C@@H](C)O)C(C)C)[C@@H](C)O
# B5: N^ε1-[(4S)-4-carboxy-4-(19-carboxynonadecanoylamino)butanoyl]-[Glu14,Arg17,Pro21,Pro27,His35]-h-amylin (peptide)
# peptide: K([γGlu-C20 diacid])CNTATCATQRLAEFLRHSSPNFGAIPSSTNVGSHTY-NH2
# modifications: disulfide 2-7; N-terminus assumed
# SMILES: CC[C@H](C)[C@H](NC(=O)[C@H](C)NC(=O)CNC(=O)[C@H](Cc1ccccc1)NC(=O)[C@H](CC(N)=O)NC(=O)[C@@H]1CCCN1C(=O)[C@H](CO)NC(=O)[C@H](CO)NC(=O)[C@H](Cc1c[nH]cn1)NC(=O)[C@H](CCCNC(=N)N)NC(=O)[C@H](CC(C)C)NC(=O)[C@H](Cc1ccccc1)NC(=O)[C@H](CCC(=O)O)NC(=O)[C@H](C)NC(=O)[C@H](CC(C)C)NC(=O)[C@H](CCCNC(=N)N)NC(=O)[C@H](CCC(N)=O)NC(=O)[C@@H](NC(=O)[C@H](C)NC(=O)[C@@H]1CSSC[C@H](NC(=O)[C@@H](N)CCCCNC(=O)CC[C@H](NC(=O)CCCCCCCCCCCCCCCCCCC(=O)O)C(=O)O)C(=O)N[C@@H](CC(N)=O)C(=O)N[C@@H]([C@@H](C)O)C(=O)N[C@@H](C)C(=O)N[C@@H]([C@@H](C)O)C(=O)N1)[C@@H](C)O)C(=O)N1CCC[C@H]1C(=O)N[C@@H](CO)C(=O)N[C@@H](CO)C(=O)N[C@H](C(=O)N[C@@H](CC(N)=O)C(=O)N[C@H](C(=O)NCC(=O)N[C@@H](CO)C(=O)N[C@@H](Cc1c[nH]cn1)C(=O)N[C@H](C(=O)N[C@@H](Cc1ccc(O)cc1)C(N)=O)[C@@H](C)O)C(C)C)[C@@H](C)O
# Molecular target: T1, human calcitonin receptor
# Experiment: SPA competition with 125I-calcitonin on membranes of BHK cells with human calcitonin receptor (Assay VII)
# In short: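 BHK hCTR membranes 35 ng/μL + SPA beads 0.05 mg/well; buffer 50 mM Hepes pH 7.4, 1 mM CaCl2, 5 mM MgCl₂, 0.1% OA, 0.02% Tween20. 120 min, 25° C., shaking. Scintillation count; IC50 by one-site binding competition.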
row,Binder,IC50 [nM]
1,B1,36.4
2,B2,42.5
3,B3,50.7
4,B4,6.62
5,B5,26.1

# Molecular target: T2, human amylin receptor (amylin 3(a) …)
# Experiment: SPA competition with 125I-rat amylin on membranes of BHK cells with human calcitonin receptor and RAMP-3 (Assay V)
# In short: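 Cell membranes were prepared by homogenisation in Na-HEPES/EDTA buffer, pH 7.4, and stored at −80° C. They were then coupled to SPA beads at 35 ng/μL final and exposed to compounds in assay buffer containing CaCl2, MgCl₂, OA and Tween20. After 120 min at 25° C, plates were counted and IC₅₀ derived.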
row,Binder,IC50 [nM]
1,B1,0.79
2,B2,0.281
3,B3,0.428
4,B4,0.232
5,B5,0.992

# Molecular target: T1, human calcitonin receptor
# Experiment: ratio IC50 hCTR / IC50 hAmylin-R (reference: human amylin receptor), SPA competition assays
# In short: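 IC₅₀ values were derived by one-site competition analysis of SPA counts. Cell membranes (35 ng/μL) with SPA beads were incubated with test compounds for 120 min at 25° C in Hepes buffer, pH 7.4, containing CaCl2, MgCl₂, OA and Tween20.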
row,Binder,Ratio hCT/hAmylin binding
1,B1,46.1
2,B2,151
3,B3,118
4,B4,28.5
5,B5,26.4
